What all share (assay): FRET or BRET
Assay [1] has as its target ^NDD_(DifG)+mTurquoise2 (Bacillus amyloliquefaciens FZB42 | not stated).
Assay [2] addresses ^NDD_(BaeN)+mTurquoise2 (Bacillus amyloliquefaciens FZB42 | not stated).
The target in assay [3] is ^NDD_(MlnC)+mTurquoise2 (Bacillus amyloliquefaciens FZB42 | not stated).

Venus+^CDD_(DifF) registered an equilibrium dissociation constant (Kd) in assay [1] of 6.3 µM.
Regarding Venus+^CDD_(BaeM), in assay [2], the Kd is 7.4 µM.
Regarding Venus+^CDD_(MlnB), the dissociation constant (Kd) in assay [3] came out at 2.9 µM.

These data come from publication PMC7102495.
